The target of test [1] is gp120 (Table 2, strain not given). In words: Luminex bead assay.
The target in test [2] is recombinant human kynureninase (rhKYNU) (human) (UniProt Q16719). As to the kind of experiment: ELISA on plate-bound rhKYNU, antibody titrated. (In general: An ELISA detects its analyte on a solid surface through an enzyme-linked reagent.)
For test [3], the target named is HIV-1 Env gp41 (HIV-1) (UniProt P05877). As to the kind of experiment: Luminex bead assay.
In test [4] the target is membrane conjugated gp41-inter. In words: SPR, gp41-inter held by Ni on liposomes captured on the chip, mAb injected; bivalent analyte fit [left panel].
Test [5] addresses recombinant human kynureninase (rhKYNU) (human) (UniProt Q16719). In words: ELISA on plate-bound rhKynureninase, antibody titrated.
Test [6] shares this target. In words: ELISA on plate-bound rhKYNU, 2F5 titrated (overlay with DP178-Q16L).
Test [7] has as its target Sm. As to the kind of experiment: Athena autoantigen assay, mAb 12.5 ug/ml.
Test [8] has as its target Histone. As to the kind of experiment: Athena autoantigen assay, mAb 12.5 ug/ml.
The target of test [9] is Jo 1. As to the kind of experiment: Athena autoantigen assay, mAb 12.5 ug/ml.
Test [10] addresses RNP. As to the kind of experiment: Athena autoantigen assay, mAb 12.5 ug/ml.
Test [11] deals with Scl 70. In words: Athena autoantigen assay, mAb 12.5 ug/ml.
Test [12] concerns the target SSB. As to the kind of experiment: Athena autoantigen assay, mAb 12.5 ug/ml.
Test [13] addresses SSA. In words: Athena autoantigen assay, mAb 12.5 ug/ml.
The target in test [14] is Sm. In words: Athena autoantigen assay, mAb 6.25 ug/ml.
Test [15] addresses Histone. As to the kind of experiment: Athena autoantigen assay, mAb 6.25 ug/ml.
Test [16] has as its target Jo 1. In words: Athena autoantigen assay, mAb 6.25 ug/ml.
For test [17], the target named is RNP. As to the kind of experiment: Athena autoantigen assay, mAb 6.25 ug/ml.
Test [18] has as its target Scl 70. As to the kind of experiment: Athena autoantigen assay, mAb 6.25 ug/ml.
Test [19] has as its target SSB. In words: Athena autoantigen assay, mAb 6.25 ug/ml.
Test [20] deals with SSA. In words: Athena autoantigen assay, mAb 6.25 ug/ml.
For test [21], the target named is Sm. As to the kind of experiment: Athena autoantigen assay, mAb 25 ug/ml.
For test [22], the target named is Histone. In words: Athena autoantigen assay, mAb 25 ug/ml.
Test [23] deals with Jo 1. In words: Athena autoantigen assay, mAb 25 ug/ml.
Test [24] addresses RNP. As to the kind of experiment: Athena autoantigen assay, mAb 25 ug/ml.
For test [25], the target named is Scl 70. As to the kind of experiment: Athena autoantigen assay, mAb 25 ug/ml.
In test [26] the target is SSB. As to the kind of experiment: Athena autoantigen assay, mAb 25 ug/ml.
Test [27] has as its target SSA. In words: Athena autoantigen assay, mAb 25 ug/ml.
Test [28] has as its target Influenza HA (Wisconsin) (influenza virus). In words: Luminex assay, antibody 50 µg/ml.
Test [29] deals with HCV E2 (HCV). In words: Luminex assay, antibody 50 µg/ml.
For test [30], the target named is Histone. As to the kind of experiment: Athena autoantigen assay, mAb 50 ug/ml.
The target in test [31] is RNP. As to the kind of experiment: Athena autoantigen assay, mAb 50 ug/ml.
The target in test [32] is HV00044 (6240 TZ5 140C) (HIV-1). In words: surface plasmon resonance; five sensorgrams with fitted curves, highest rising to about 650 RU with almost no dissociation up to 1000 s. Background: SPR reads the build-up and loss of mass on a sensor chip optically.
The target in test [33] is Env (gp120) of HIV-1 isolate JRCSF (HIV-1) (UniProt P20871). In words: cell-based or functional assay.
Test [34] deals with Env (gp120) of HIV-1 isolate Q23.17 (HIV-1). In words: cell-based or functional assay.
The target in test [35] is Env (gp120) of HIV-1 JRFL.N160K.E168K (HIV-1). In words: cell-based or functional assay.
For test [36], the target named is Env (gp120) of HIV-1 isolate 7165.18 (HIV-1). As to the kind of experiment: cell-based or functional assay.
The target of test [37] is Env (gp120) of HIV-1 JRCSF.N160K (HIV-1) (UniProt P20871). In words: cell-based or functional assay.
Test [38] has as its target Env (gp120) of HIV-1 isolate JRFL (virus) (HIV-1). As to the kind of experiment: cell-based or functional assay.
Test [39] deals with Env (gp120) of HIV-1 JRFL.E168K (HIV-1). As to the kind of experiment: cell-based or functional assay.
Test [40] addresses Env (gp120) of HIV-1 Q23.17.N160K (HIV-1). As to the kind of experiment: cell-based or functional assay.
Test [41] concerns the target Env (gp120) of HIV-1 7165.18.N160K (HIV-1). As to the kind of experiment: cell-based or functional assay.

SSB, sequence (P05455 whole entry): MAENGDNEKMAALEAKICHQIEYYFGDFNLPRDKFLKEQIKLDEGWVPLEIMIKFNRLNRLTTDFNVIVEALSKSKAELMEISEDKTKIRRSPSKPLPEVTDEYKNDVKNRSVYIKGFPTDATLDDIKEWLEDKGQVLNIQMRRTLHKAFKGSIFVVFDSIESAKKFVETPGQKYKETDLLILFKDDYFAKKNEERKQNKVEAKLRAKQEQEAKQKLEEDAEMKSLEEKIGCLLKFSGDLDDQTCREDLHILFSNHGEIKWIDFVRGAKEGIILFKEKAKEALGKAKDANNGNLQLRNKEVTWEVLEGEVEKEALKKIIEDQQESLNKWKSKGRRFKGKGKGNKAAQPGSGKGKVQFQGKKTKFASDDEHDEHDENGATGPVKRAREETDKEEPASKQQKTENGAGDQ
Jo 1, sequence (P12081 2-509): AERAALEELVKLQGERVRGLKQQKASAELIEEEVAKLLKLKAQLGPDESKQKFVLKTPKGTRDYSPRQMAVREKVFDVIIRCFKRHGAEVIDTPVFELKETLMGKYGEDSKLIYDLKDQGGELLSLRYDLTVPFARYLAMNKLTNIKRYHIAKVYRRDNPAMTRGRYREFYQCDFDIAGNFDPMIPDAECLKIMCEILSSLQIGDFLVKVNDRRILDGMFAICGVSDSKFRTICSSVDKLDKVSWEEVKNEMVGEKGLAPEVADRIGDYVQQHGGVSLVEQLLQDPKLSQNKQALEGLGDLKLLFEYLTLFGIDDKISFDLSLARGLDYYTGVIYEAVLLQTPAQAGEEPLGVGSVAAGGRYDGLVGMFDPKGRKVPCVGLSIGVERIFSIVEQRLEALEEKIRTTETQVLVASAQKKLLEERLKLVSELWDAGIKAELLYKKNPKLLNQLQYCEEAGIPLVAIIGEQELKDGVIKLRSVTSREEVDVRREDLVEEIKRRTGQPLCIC
recombinant human kynureninase (rhKYNU) (human), sequence (Q16719 whole entry): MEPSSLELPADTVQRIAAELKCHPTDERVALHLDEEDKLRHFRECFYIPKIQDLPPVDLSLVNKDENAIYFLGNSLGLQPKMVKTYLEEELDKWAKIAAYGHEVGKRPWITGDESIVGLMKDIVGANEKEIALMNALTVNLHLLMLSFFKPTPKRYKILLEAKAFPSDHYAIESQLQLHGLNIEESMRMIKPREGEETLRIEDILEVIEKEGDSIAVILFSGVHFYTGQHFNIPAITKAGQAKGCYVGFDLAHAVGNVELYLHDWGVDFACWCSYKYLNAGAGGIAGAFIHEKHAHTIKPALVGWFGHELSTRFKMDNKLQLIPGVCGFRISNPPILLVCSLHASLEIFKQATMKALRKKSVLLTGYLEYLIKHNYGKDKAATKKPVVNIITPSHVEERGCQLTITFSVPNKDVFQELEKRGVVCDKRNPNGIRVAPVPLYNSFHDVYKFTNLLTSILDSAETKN

1b12 original (antibody) had a Reactivity in Luminex Units (Luminex units) in test [1] of 5110.
For 2F5 (antibody), the EC50 (read off the curve) (usually the concentration giving half of the maximal effect) is 0.05 µg/mL in [2], 0.03 µg/mL in test [5] and 0.05 µg/mL in test [6]. Also, the Reactivity in Luminex Units (Luminex units) came out at 32700 in test [3] and 9240 in test [1]. Further, the Kd in test [4] was 0.21 nM. The koff (as a rule, the rate constant with which the complex falls apart) in test [4] came out at 9e-06 s⁻¹.
On to “17b original (CCR5 binding site antibody)”, for which the Reactivity in Luminex Units (Luminex units) in test [3] stood at 1430.
Consider CH02 (antibody), for which the Athena autoreactivity score in [7] was 2.5; in test [8] it was 8.5; in [9], 1; in [10] it was 6; in test [11] it was 1.5; in [12] it was 3.5. In addition, the Athena autoreactivity score in test [13] stood at 5; in [14], 2.5; in test [15] it was 7; in [16] it was 1.5; in [17], 5; in [18], 2. For the same substance, the Athena autoreactivity score in [19] worked out at 5; in test [20] it was 5; in test [21], 3; in test [22], 11.5; in [23], 1.5; in [24] it was 9. The Athena autoreactivity score in [25] came out at 2; in test [26], 4.5; in [27], 6. For the same substance, the background subtracted RFUs in [28] was determined as 0.3 RFU; in [29] it was 333 RFU.
CH03 (antibody): the Athena autoreactivity score was 9 in test [7]; 359 in test [8]; 4 in test [9]; 74 in [10]; 8 in [11]; 6 in test [12]. For the same substance, the Athena autoreactivity score came to 6 in test [13]; 7 in test [14]; 231 in test [15]; 3 in test [16]; 51 in test [17]; 4 in test [18]. The Athena autoreactivity score in test [19] is 5; in test [20], 5; in test [30], 844; in [31], 132; in [21], 10; in test [22] it was 386. The Athena autoreactivity score in test [23] is 4; in test [24] it was 70; in test [25], 7; in [26], 4; in [27] it was 6. For the same substance, the background subtracted RFUs in test [28] stood at 1 RFU; in test [29] it was 2910 RFU.
Take CH04 (antibody): the figures for the background subtracted RFUs in test [28] and in [29] were 2.5 RFU and 0.5 RFU, respectively.
CH05 (antibody): the background subtracted RFUs came out at 5.5 RFU in test [28] and 1.3 RFU in test [29].
For PG9 (antibody), the Kd in test [32] was determined as 0.75 nM. Also, the IC50 (virus neutralization) in test [33] was 0.003 µg/mL; in [34] it was 0.002 µg/mL; in [35], over 50 µg/mL; in [36], over 50 µg/mL; in test [37], over 50 µg/mL; in [38] it was over 50 µg/mL. Also, the IC50 (virus neutralization) in test [39] was 0.008 µg/mL; in test [40] it was over 50 µg/mL; in test [41], over 50 µg/mL. Further, the IC80 (virus neutralization) in test [33] is 0.008 µg/mL; in [34], 0.005 µg/mL; in test [35] it was over 50 µg/mL; in test [36] it was over 50 µg/mL; in test [37], over 50 µg/mL; in test [38], over 50 µg/mL. Also, the results for the IC80 (virus neutralization) in [39], in [40] and in test [41] were 0.055 µg/mL, over 50 µg/mL and over 50 µg/mL, respectively. The background subtracted RFUs in test [28] and in [29] was 0 RFU throughout.
Turning to PG16 (antibody), the IC50 (virus neutralization) in test [33] is 0.003 µg/mL; in test [34], 0.001 µg/mL; in [35], over 50 µg/mL; in [36], 11.8 µg/mL; in test [37], over 50 µg/mL; in test [38] it was over 50 µg/mL. Moreover, the IC50 (virus neutralization) is 0.003 µg/mL in [39], over 50 µg/mL in [40] and over 50 µg/mL in test [41]. Besides, the IC80 (virus neutralization) is 0.012 µg/mL in [33]; 0.003 µg/mL in [34]; over 50 µg/mL in test [35]; over 50 µg/mL in [36]; over 50 µg/mL in [37]; over 50 µg/mL in test [38]. For the same substance, the IC80 (virus neutralization) in [39] is 0.015 µg/mL; in test [40], over 50 µg/mL; in test [41], over 50 µg/mL. Moreover, the background subtracted RFUs in test [28] and in test [29] was 0 RFU in each case.
As to “Synagis (anti-RSV control mAb) (antibody)”, the background subtracted RFUs in test [28] was found to be 1 RFU; in [29] it was 0.5 RFU.

These data come from patent US20160271244A1.
